Test results published in article PMC7205571 (Structure (London, England : 1993), 2020).

Experiments:
hRpn13 Pru (1–150) = hRpn13 Pru (1–150) (human, UniProt Q16186 1-150, 13C-labelled); assay: NMR structure
monoubiquitin = monoubiquitin (UniProt P0CG48 1-76); assay: NMR 13C-half-filtered NOESY

Row | binding result (hRpn13 Pru (1–150)) | Binder | binding result (monoubiquitin)
1 | binds | QEPEPPEPFEYIDD (peptide, UniProt Q99460 940-953, looked up) [hRpn2 (940–953)] | 
2 |  | hRpn2-bound hRpn13 (hRpn13 Pru:hRpn2 (940–953) complex) (complex, human, 13C-labelled) chain 1: MTTSGALFPSLVPGSRGASNKYLVEFRAGKMSLKGTTVTPDKRKGLVYIQQTDDSLIHFCWKDRTSGNVEDDLIIFPDDCEFKRVPQCPSGRVYVLKFKAGSKRLFFWMQEPKTDQDEEHCRKVNEYLNNPPMPGALGASGSSGHELSAL chain 2: QEPEPPEPFEYIDD | binds
